Test results: patent US20170320955A1 (IGM BIOSCIENCES A S, published 2017)

What was measured:
Experiment in all cases: ELISA as in Example 2, receptor coated on the plate
[1] = target: T1, Soluble DR4 protein (R&D Systems Catalog #347-DR-100/CF) (human, UniProt O00220 24-239, limits assumed)
T1 construct: Coated on the ELISA plate at 2 ug/mL; also called TRAILR1; Apo2
T1 sequence (looked up): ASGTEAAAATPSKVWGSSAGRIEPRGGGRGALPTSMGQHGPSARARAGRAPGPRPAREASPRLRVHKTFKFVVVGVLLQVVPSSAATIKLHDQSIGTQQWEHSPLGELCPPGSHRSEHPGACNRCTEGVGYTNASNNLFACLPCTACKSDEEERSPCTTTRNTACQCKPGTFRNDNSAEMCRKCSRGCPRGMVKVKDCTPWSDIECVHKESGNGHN
Method: (§1) DR4 or decoy receptors DcR1 and DcR2. Soluble DRS, DR4, DcR1, or DcR2 protein (R&D Systems Catalog #631-T2-100/CF, 347-DR-100/CF, 630-TR-100/CF, 633-TR-100 respectively) were coated on an ELISA plate at 2 μg/mL in 100 mM NaHCO₃ pH 9.5 overnight at 4° C. A solution of 2% BSA in PBS was used for the blocking and antibody incubation steps. The plate was blocked for 1 hour at room temperature, then incubated with mouse anti-human DRS mAb (Acris Antibodies Catalog #AM31206AF-N) for 1 hour at room temperature. anti-DRS mAb was 3-fold serially diluted to concentrations ranging from 1 to 200 ng/mL. After washing 3 times with PBS plus 0.05% Tween-20, the plate was incubated with rat anti-mouse kappa-HRP (Southern Biotech Catalog #1180-05) for 1 hour at room temperature, protected from light. After washing 3 times with PBS plus 0.05% Tween-20, the plate was incubated with TMB substrate (BD Biosciences Catalog #555214) for 20 minutes at room temperature. The reaction was stopped with 1M H₂SO₄ and absorbance at 450nm was determined using a microtiter plate reader.
(§2) Biotech Catalog #9180-05) or 1:6000 Mouse Anti-Human Kappa-HRP (Southern Biotech Catalog #9230-05) was used for detection.

[2] = target: T2, Soluble DcR1 protein (R&D Systems Catalog #630-TR-100/CF) (UniProt O14798 26-221, limits assumed)
T2 construct: Coated on the ELISA plate at 2 ug/mL; also called TRAILR3; decoy receptor DcR1
T2 sequence (looked up): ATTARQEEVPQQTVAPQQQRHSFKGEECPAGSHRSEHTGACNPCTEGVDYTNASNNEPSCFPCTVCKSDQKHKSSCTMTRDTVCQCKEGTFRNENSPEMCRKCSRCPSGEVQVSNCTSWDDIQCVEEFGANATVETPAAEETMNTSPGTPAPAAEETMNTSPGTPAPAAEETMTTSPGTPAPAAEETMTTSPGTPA
Method: as §1, §2

[3] = target: T3, Soluble DcR2 protein (R&D Systems Catalog #633-TR-100) (UniProt Q9UBN6 56-211, limits assumed)
T3 construct: Coated on the ELISA plate at 2 ug/mL; also called TRAILR4; decoy receptor DcR2
T3 sequence (looked up): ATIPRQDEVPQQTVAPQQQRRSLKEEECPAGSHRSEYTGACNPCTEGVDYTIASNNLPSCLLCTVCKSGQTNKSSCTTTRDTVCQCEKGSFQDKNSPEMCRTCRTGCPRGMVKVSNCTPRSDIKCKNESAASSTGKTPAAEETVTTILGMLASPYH
Method: as §1, §2

Measured: binding result

B1: Anti-DR5 mAb #2, IgG version (antibody, V domains shown)
VH: QVQLQESGPGLVKPSQTLSLTCTVSGGSISSGDYFWSWIRQLPGKGLECIGHIHNSGTTYYNPSLKSRVTISVDTSKKQFSLRLSSVTAADTAVYYCARDRGGDYYYGMDVWGQGTTVTVSS
VL: EIVLTQSPGTLSLSPGERATLSCRASQGISRSYLAWYQQKPGQAPSLLIYGASSRATGIPDRFSGSGSGTDFTLTISRLEPEDFAVYYCQQFGSSPWTFGQGTKVEIK
notes: Human IgG; variable domains put into proprietary IgG vectors (Aragen Biosciences, Lake Pharma); also called DR5 MAb IgG #2; Anti-DRS mAb #2 IgG
no binding: all assays above

B2: Anti-DR5 mAb #2, pentameric IgM-J chain version (antibody, V domains shown)
VH: B1 VH
VL: B1 VL
notes: Pentameric IgM with J chain; variable domains put into proprietary IgM vectors; also called DR5 MAb IgM #2; IgM Anti-DR5 mAb #2
no binding: all assays above
